Experimental data from patent US20250230248A1 (TAVOTEK BIOTHERAPEUTICS HONG KONG, published 2025).

B1: 7D VH1 (VHH)
VHH: EVQLVESGGGVVRPGGSLRLSCAASGRTSRSYGMGWFRQAPGKEREFVSGISWRGDSTGYADSVKGRFTISRDNAKNSVDLQMNSLRAEDTALYYCAAAAGSAWYGTLYEYDYWGQGTQVTVSS
notes: also called 7D VH hit; EGFR VHO mAb
B2: Onartuzumab (antibody, V domains shown)
VH: EVQLVESGGGLVQPGGSLRLSCAASGYTFTSYWLHWVRQAPGKGLEWVGMIDPSNSDTRFNPNFKDRFTISADTSKNTAYLQMNSLRAEDTAVYYCATYRSYVTPLDYWGQGTLVTVSS
VL: DIQMTQSPSSLSASVGDRVTITCKSSQSLLYTSSQKNYLAWYQQKPGKAPKLLIYWASTRESGVPSRFSGSGSGTDFTLTISSLQPEDFATYYCQQYYAYPWTFGQGTKVEIK
notes: also called cMET OVH0 / cMET OVL0
B3: EV1 (antibody, V domains shown)
VH: QVQLVQSGAEVKKPGASVKVSCKASGYTFTDYYMHWVRQAPGQGLEWMGRVNPNRGGTTYAQKFQGRVTMTTDTSISTAYMELSRLRSDDTAVYYCARANWLDYWGQGTTVTVSS
VL: DIQMTQSPSSLSASVGDRVTITCRVSQSVSSIYLHWYQQKPGKAPKLLIYSTSNLQSGVPSRFSGSGSGTDFTLTISSLQPEDFATYYCQVYSGYPLTFGGGTKVEIK
notes: anti-cMET mAb hit; also called cMET EVH1 / cMET EVL1
B4: TV1 (antibody, V domains shown)
VH: QVQLVQSGAEVKKPGSSVKVSCKASGYIFTAYTMHWVRQAPGQGLEWMGGIKPNNGLANYAQKFQGRVTITADESTSTAYMELSSLRSEDTAVYYCARSEITTEFDYWGQGTLVTVSS
VL: DIVMTQSPDSLAVSLGERATINCKSSESVDSYANSFLHWYQQKPGQPPKLLIYRASTRESGVPDRFSGSGSGTDFTLTISSLQAEDVAVYYCQQSKEDPLTFGGGTKVEIK
notes: anti-cMET mAb hit; also called cMET TVH1 / cMET TVL0
B5: TV4 (antibody, V domains shown)
VH: QVQLQESGPGLVKPSGTLSLTCAVSGYIFTAYTMHWVRQPPGKGLEWIGGIKPNNGLANYNPSLKSRATLSVDKSKNQASMKLSSVTAADTAVYYCARSEITTEFDYWGQGTLVTVSS
VL: DIQMTQSPSSLSASVGDRVTITCRASESVDSYANSFMHWYQQKPGKAPKLLIYRASNLESGVPSRFSGSGSGTDFTLTISSLQPEDFATYYCQQSKEDPLTFGGGTKVEIK
notes: anti-cMET mAb hit; also called cMET TVH2 / cMET TVL2
B6: 7D VH6×TV4 bispecific antibody (bispecific antibody, not shown: a dimerising Fc or GST)
chain: not shown
VH: B5 VH
VL: B5 VL
notes: also called EGFR×cMet hit; candidate BsAb
B7: 7D VH4×TV4 bispecific antibody (bispecific antibody, not shown: a dimerising Fc or GST)
chain: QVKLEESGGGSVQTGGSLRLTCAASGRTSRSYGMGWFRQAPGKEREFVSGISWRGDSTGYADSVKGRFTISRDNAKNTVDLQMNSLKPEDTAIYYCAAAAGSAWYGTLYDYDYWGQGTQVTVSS
VH: B5 VH
VL: B5 VL
notes: as for B6
B8: 7D VH6×EV1 bispecific antibody (bispecific antibody, not shown: a dimerising Fc or GST)
chain: not shown
VH: B3 VH
VL: B3 VL
notes: as for B6
B9: 7D VH4×EV1 bispecific antibody (bispecific antibody, not shown: a dimerising Fc or GST)
chain: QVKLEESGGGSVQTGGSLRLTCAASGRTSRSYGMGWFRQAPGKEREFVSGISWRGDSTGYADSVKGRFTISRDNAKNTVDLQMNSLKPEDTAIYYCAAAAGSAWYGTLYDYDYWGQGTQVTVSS
VH: B3 VH
VL: B3 VL
notes: as for B6
B10: gp120 mAb (antibody, V domains shown)
VH: QVQLVQSGAEVKKPGASVKVSCQASGYRFSNFVIHWVRQAPGQRFEWMGWINPYNGNKEFSAKFQDRVTFTADTSANTAYMELRSLRSADTAVYYCARVGPYSWDDSPQDNYYMDVWGKGTTVIVSS
VL: EIVLTQSPGTLSLSPGERATFSCRSSHSIRSRRVAWYQHKPGQAPRLVIHGVSNRASGISDRFSGSGSGTDFTLTITRVEPEDFALYYCQVYGASSYTFGQGTKLERK
notes: also called anti-gp120 mAb v12; null control Ab

Legend:
[1] = biological target: T1, EGFR on HCC827 cells (UniProt P00533 25-1210); experiment: blocking of EGF-EGFR binding, HCC827 cells, gMFI, FIG. 2D
T1 construct: whole, on cells; human tumour cell line; also called EGFR (HCC827)

[2] = biological target: T2, cMET extracellular domain (ECD) (UniProt P08581 25-932, limits assumed); experiment: ELISA on cMET ECD, FIG. 3A
T2 construct: extracellular domain; Probably the same reagent as recombinant human cMET; also called cMET ECD
T2 sequence (P08581 25-932 limits assumed): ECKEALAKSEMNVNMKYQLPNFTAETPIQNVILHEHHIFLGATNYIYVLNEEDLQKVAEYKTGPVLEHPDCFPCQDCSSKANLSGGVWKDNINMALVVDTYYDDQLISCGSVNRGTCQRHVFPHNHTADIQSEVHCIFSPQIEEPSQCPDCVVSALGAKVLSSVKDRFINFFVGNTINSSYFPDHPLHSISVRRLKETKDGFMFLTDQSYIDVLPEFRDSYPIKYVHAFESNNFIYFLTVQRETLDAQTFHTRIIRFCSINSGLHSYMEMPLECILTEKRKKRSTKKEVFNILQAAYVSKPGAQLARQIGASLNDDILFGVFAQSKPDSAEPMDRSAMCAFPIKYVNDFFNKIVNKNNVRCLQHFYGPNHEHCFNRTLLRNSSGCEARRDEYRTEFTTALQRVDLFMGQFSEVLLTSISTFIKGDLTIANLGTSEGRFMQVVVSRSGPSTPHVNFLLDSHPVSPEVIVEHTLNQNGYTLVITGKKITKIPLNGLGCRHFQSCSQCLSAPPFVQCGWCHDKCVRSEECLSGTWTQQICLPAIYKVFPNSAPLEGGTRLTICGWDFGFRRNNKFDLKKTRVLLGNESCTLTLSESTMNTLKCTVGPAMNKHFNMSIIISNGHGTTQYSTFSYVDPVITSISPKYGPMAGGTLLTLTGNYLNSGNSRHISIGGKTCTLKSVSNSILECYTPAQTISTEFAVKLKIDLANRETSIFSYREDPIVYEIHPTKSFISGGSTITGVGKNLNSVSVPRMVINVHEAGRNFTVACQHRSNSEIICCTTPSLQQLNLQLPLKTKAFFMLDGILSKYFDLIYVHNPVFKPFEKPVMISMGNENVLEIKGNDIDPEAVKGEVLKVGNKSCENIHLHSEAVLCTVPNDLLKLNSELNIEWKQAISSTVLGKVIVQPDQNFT

[3] = biological target: T2, cMET extracellular domain (ECD); experiment: blocking of HGF binding to cMET ECD, ELISA, FIG. 3F
[4] = biological target: T1, EGFR on HCC827 cells; experiment: blocking of EGF binding to EGFR on HCC827 cells, FACS, FIG. 8B
[5] = biological target: T3, recombinant human EGFR ECD (human, UniProt P00533 25-645); experiment: ELISA on EGFR ECD, FIG. 2A
T3 construct: extracellular domain; also called EGFR extracellular domain (ECD)

| Binder | EC50 [2] [µg/mL] | EC50 [3] [µg/mL] | EC50 [4] [nM] | other results |
| --- | --- | --- | --- | --- |
| B1 | – | – | – | EC50 [1]: ~0.025 µg/mL |
| B2 | ~0.025 | ~0.093 | – | – |
| B3 | ~0.0175 | ~0.093 | – | – |
| B4 | ~0.0185 | ~0.122 | – | – |
| B5 | ~0.018 | ~0.108 | – | – |
| B6 | – | – | ~0.63 | – |
| B7 | – | – | ~0.93 | – |
| B8 | – | – | ~0.63 | – |
| B9 | – | – | ~0.81 | – |
| B10 | – | – | – | binding result [5]: no binding |
